Experimental data taken from patent US20200405832A1 (MINERVA BIOTECHNOLOGIES, published 2020).
Blank lines part the entries; values can stand above or below the binder they belong to.

Key:
[1] = molecular target: T1, PSMGFR peptide (Primary Sequence of the MUC1 Growth Factor Receptor); assay: binding assay on peptide
T1 construct: 45-residue peptide from the extracellular domain of cleaved MUC1 (MUC1*); also called MUC1* peptide; MUC1* extra cellular domain peptide
T1 peptide: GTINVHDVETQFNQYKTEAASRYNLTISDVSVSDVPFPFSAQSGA

dimeric NME1 = molecular target: T2, dimeric NME1 (human, UniProt P15531 1-152, limits assumed); assay: binding assay on peptide
T2 construct: The construct used is not described; also called NM23-H1 dimers; dimeric NM23-H1

NME7-AB = molecular target: T3, NME7-AB (UniProt Q9Y5B8 92-376); assay: binding assay on peptide
T3 sequence (looked up): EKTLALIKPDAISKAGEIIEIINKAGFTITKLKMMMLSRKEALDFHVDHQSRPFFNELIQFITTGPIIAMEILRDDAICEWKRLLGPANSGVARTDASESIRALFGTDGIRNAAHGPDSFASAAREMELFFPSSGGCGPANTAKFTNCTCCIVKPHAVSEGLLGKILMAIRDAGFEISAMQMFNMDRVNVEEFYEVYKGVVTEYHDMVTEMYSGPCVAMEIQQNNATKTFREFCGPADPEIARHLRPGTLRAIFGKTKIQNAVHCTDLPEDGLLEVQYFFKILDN

[2] = molecular target: T1, PSMGFR peptide (Primary Sequence of the …); assay: binding to peptide; assay not described

T2 sequence (P15531 whole entry): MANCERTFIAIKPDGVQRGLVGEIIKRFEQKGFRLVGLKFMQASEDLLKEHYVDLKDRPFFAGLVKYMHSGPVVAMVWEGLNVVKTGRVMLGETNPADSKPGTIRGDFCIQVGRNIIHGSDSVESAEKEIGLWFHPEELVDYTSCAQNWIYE

binding result [1]: binds
B2: mouse monoclonal antibody MN-E6 (antibody, V domains shown)
VH: EVKVVESGGDLVKPGGSLKLSCVVSGFTFSRYGMSWVRQTPGKRLEWVATISGGGTYIYYPDSVKGRFTISRDNAKNTLYLQMSSLKSEDTAMYHCTRDNYGRNYDYGMDYWGQGTSVTVSS
VL: QIVLTQSPAIMSASPGEEVTLTCSATSSVSYIHWFQQRPGTSPKLWIYSTSNLASGVPVRFSGSGYGTSYSLTISRMEAEDAATYYCQQRSSSPFTFGSGTKLEIK
notes: also called Min-E6

binding result (dimeric NME1): no binding
binding result (NME7-AB): no binding
Binder: GTINVHDVETQFNQYKTEAASRYNLTISDVSVSDV (also called C-10 PSMGFR) [PSMGFR peptide lacking the 10 C-terminal amino acids]

The remaining lines, values behind:

B1: mouse monoclonal antibody MN-C2 (antibody, V domains shown)
VH: EVQLEESGGGLVKPGGSLKLSCAASGFTFSGYAMSWVRQTPEKRLEWVATISSGGTYIYYPDSVKGRFTISRDNAKNTLYLQMSSLRSEDTAMYYCARLGGDNYYEYFDVWGAGTTVTVSS
VL: DIVITQSTASLGVSLGQRATISCRASKSVSTSGYSYMHWYQQRPGQPPKLLIYLASNLESGVPARFSGSGSGTDFTLNIHPVEEEDAATYYCQHSRELPFTFGGGTKLEIKR
notes: The printed entries run a few residues into the constant region; also called Min-C2
binding result [1]: binds

B3: mouse monoclonal antibody MN-C3 (antibody, V domains shown)
VH: QVQLQQSGPELVRPGVSVKISCKGSGYRFTDYAMNWVKQSHAKSLEWIGVISTFSGNTNFNQKFKGKATMTVDKSSSTAYMELARLTSEDSAMYYCARSDYYGPYFDYWGQGTTLTVSS
VL: DVLMTQTPLSLPVSLGDQASISCRSSQTIVHSNGNTYLEWYLQKPGQSPKLLIYKVSNRFSGVPDRFSGSGSGTDFTLKINRVEAEDLGVYYCFQGSHVPFTFGSGTKLEIK
notes: also called Min-C3
binding result [2]: binds
